The text below walks through data of patent publication US20040071710A1.

For assay [1], the target named is E2 BEVS, recombinant HCV genotype 1b E2 protein produced in insect cells using Baculovirus (hepatitis C virus genotype 1b). As to the kind of experiment: ELISA, E2-BEVS coated at 2 µg/ml, antibody at 0.25 µg/ml.
The target is the same in assay [2]. As to the kind of experiment: BIAcore 2000 (SPR).
Assay [3] addresses E2 CHO, recombinant HCV genotype 1b E2 protein produced in mammalian CHO cells (hepatitis C virus genotype 1b). As to the kind of experiment: BIAcore 2000 (SPR). For orientation: Surface plasmon resonance follows binding to a sensor surface in real time, without labels.
Assay [4] deals with HCV particles from sera of HCV infected patients (hepatitis C virus genotype 1b and 1a/1b). As to the kind of experiment: immuno magnetic separation of virus from patient serum, RT-PCR detection.
Assay [5] has as its target E2 BEVS, recombinant HCV genotype 1b E2 protein produced in insect cells using Baculovirus (hepatitis C virus genotype 1b). As to the kind of experiment: ELISA, E2-BEVS coated at 2 µg/ml, antibody at 0.0078 µg/ml.
Assay [6] has the same target. As to the kind of experiment: ELISA, E2-BEVS coated at 2 µg/ml, antibody at 0.0625 µg/ml. In general terms: ELISA stands for enzyme-linked immunosorbent assay.
The target is the same in assay [7]. The experiment in a line: ELISA, E2-BEVS coated at 2 µg/ml, antibody at 0.125 µg/ml.
The target is the same in assay [8]. The experiment in a line: ELISA, E2-BEVS coated at 2 µg/ml, antibody at 0.03125 µg/ml.
The target is the same in assay [9]. As to the kind of experiment: ELISA, E2-BEVS coated at 2 µg/ml, antibody at 1 µg/ml.
Assay [10] shares this target. As to the kind of experiment: ELISA, E2-BEVS coated at 2 µg/ml, antibody at 0.0156 µg/ml.
Assay [11] has the same target. The experiment in a line: ELISA, E2-BEVS coated at 2 µg/ml, antibody at 0.5 µg/ml.

E2 CHO, recombinant HCV genotype 1b E2 protein produced in mammalian CHO cells (hepatitis C virus genotype 1b), sequence (P26664 384-714): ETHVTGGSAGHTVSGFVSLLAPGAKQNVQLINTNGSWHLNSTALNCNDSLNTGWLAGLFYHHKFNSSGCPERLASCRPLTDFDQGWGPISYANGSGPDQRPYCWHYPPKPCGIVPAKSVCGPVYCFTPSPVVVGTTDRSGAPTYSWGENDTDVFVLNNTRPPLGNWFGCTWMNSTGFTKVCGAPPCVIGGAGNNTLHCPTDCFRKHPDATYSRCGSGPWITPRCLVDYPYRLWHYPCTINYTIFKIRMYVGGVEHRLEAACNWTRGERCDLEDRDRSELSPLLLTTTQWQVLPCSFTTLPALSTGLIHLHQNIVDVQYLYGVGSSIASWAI

B1: HCV-AB 68 (antibody, V domains shown)
VH: QVQLVESGGGVVQPGRSLRLSCATSGFPFSSYGMHWVRQAPGKGLEWVAVISYDGSNEHSIDSVKGRFTISRDNSKNRLYLQMKSLRAEDMAVYFCVRGAHRSSWSGKRFDYWGQGTLVTVSS
VL: DIQMTQSPSTLSASIGDRVTITCRASLNILTWLAWYQQKPGKAPKLLIYEASSLESGVPSRFSGSGSGTQFTLTISSLQPDDFATYYCQQSNTPWTFGQGTKVEIKR
Usually Kd stands for the constant that tells how readily two partners part at equilibrium. As to B1, the OD450 nm in assay [1] amounted to 0.305 OD450 nm; in assay [5], 0.065 OD450 nm; in assay [6], 0.204 OD450 nm; in assay [7], 0.267 OD450 nm; in assay [8] it was 0.171 OD450 nm; in [9] it was 0.439 OD450 nm. Further, the OD450 nm in assay [10] was determined as 0.12 OD450 nm; in assay [11], 0.362 OD450 nm. For the same molecule, the Kd was found to be 1.7 nM in [2] and 0.014 nM in assay [3]. This molecule had a percentage of bound virus in [4] of 50%.
